Values quoted from earlier work, collected in patent EP1666054A1, “Method for administering insulinotropic peptides” (priority 1998, dated 2006).

Settings: pulmonary delivery; calculated, background statement

## parathyroid hormone (1-34)
  Absorption values (delivered through the lungs): fifteen
